Experimental data from US6541208B1, “Diagnostic method for distinguishing HIV-associated dementia from other forms of dementia” (University of Maryland Biotechnology Institute, priority 1998, dated 2003).
“Also recorded” adds a separate entry of the source.

What was measured:
[1] = system: astrocytic release of RANTES, MIP-1α and MIP-1β; assay: ELISA detection of RANTES, MIP-1α and MIP-1β in astrocyte supernatants; format: cell-based, human; settings: Tat treated astrocytes; ELISA detection limit 10 pg/ml
Description: MIP1-1α, MIP-1β and RANTES were detected by ELISA (R&D Systems). These ELISAs could detect concentrations as low as 10 pg/ml. Protein measurements were determined by comparison to a standard curve, run in duplicate with each assay.
(§1) To determine whether increased expression of MCP-1 would correlate with increased protein synthesis or release, we next analyzed the supernatants of Tat treated astrocytes by ELISA and Western blot. […] This increase was specific in that astrocytic release of RANTES, MIP-1α and MIP-1β was not observed.

[2] = system: astrocytic release of MCP-1; assay: Immunoassay (ELISA) and Western blot of MCP-1 in astrocyte supernatants; format: cell-based, human
Description: FIG. 2A—Astrocytes were grown to near confluency in […]. Each well contained 10^6 cells in 1 ml medium. Medium was then changed and astrocytes were stimulated with exogenous Tat in doses ranging from 0.01 to 1.0 μM. Twenty hr later, samples were taken for analysis by immunoassay (R&D Systems). […] Data are shown as means +S.E. for three replicates.
FIG. 2B—Similar experiment except that astrocytes were stimulated with 100 nM Tat or with an equivalent amount of Tat that had first been either digested with tripsin (Tat-tr) or immunoabsorbed (Tat-im).
FIG. 3—Western blot analysis of MCP-1 in astrocyte supernatants. In lanes 2-7, 50 μg of protein from variously treated astrocyte supernatants were run on a 15% Tris/Glycine denaturing gel. Three ng of non-glycosylated recombinant MCP-1 (R&D Systems) were run in lane 1 as a control. Following protein transfer to nitrocellulose, the blot was probed with a polyclonal antibody with recognized human MCP-1 (R&D Systems). After washing, an appropriate secondary antibody was applied (horse radish peroxidase conjugated anti-goat, [Santa-Cruz Biotechnology]) and electrochemilurninescence (Amersham) was used to visualize the bands. […] The lower arrow represents a band, which runs with an apparent molecular mass of 9 kDa while the upper band, of slighter high molecular mass, is likely to represent MCP-1, which has been altered by the addition of O-linked carbohydrates. Both forms of MCP-1 are active in vitro.
Astrocytes (10^6 per 1 ml medium) were stimulated with 100 nM HIV-1IIIB gp41 (Intracel) or 100 nM HIV-1IIB gp 120 (Intracel), and supernantants were assessed 24 hr. later by immunoassay (R&D Systems).
Trypsin digestion of Tat was performed by the addition of 25 μl of 0.25% trypsin per μg of Tat. The mixture was then incubated for 4 hr. before the 1:1 addition of soybean tripsin inhibitor (Sigma).
Immunoabsorption of Tat was performed as described previously by Magnusson et al. (1995). Briefly, a Tat specific monoclonal antibody (Intracel) was bound to protein A-sepharose (Pharmacia), washed, and then incubated with Tat for 60 min at room temperature, followed by centrifugation.
as §1

[3] = system: astrocytic MCP-1 expression; assay: Northern blot analysis of MCP-1 RNA in stimulated human astrocytes; format: cell-based
Text: FIG. 1A—Total RNA was extracted from T lymphoblastoid HUT 78 cells (ATCC), and from variously treated human astrocytes. Ten μg per lane were then run on a 1% agarose-6% formaldehyde gel. Following transfer of RNA to nitrocellulose, the blot was probed with the full-length cDNA for MCP-1, and subsequently, RANTES. RNA from untreated astrocytes was run in lanes 2 and 4. […] Astrocytic expression of RANTES was not detected.
FIG. 1B—Similar experience except that RNA from HUT 78 cells (lane 1) was compared to RNA from astrocytes that were unstimulated (lane 2) or stimulated for 2 hr with 100 nM Tat (lane 3), 25 μM TPCK followed by 100 nM Tat (lane 4) or 25 μM TPCK (lane 5).
Brain tissue from 12-14 wk human fetuses was obtained in accordance with NIH guidelines. The tissue was mechanically disrupted by aspiration through a 19-gauge needle, washed in Eagle's minimal essential medium (EMEM) and then distributed into tissue culture flasks. Cells were maintained in EMEM containing 10% fetal bovine serum, 2 mM L-glutamine and 5 μg/ml gentamicin. Several days later, flasks were placed into an orbital incubator shaker at 37° C. and 210 rpm for 6 hr. Non-adherent cells were removed. A portion of the adherent cells were later stained with an antibody to glial fibrallary acidic protein and only those cultures which were >95% positive were used. […]

astrocytes = assay: Astrocyte proliferation assay (tritiated thymidine); format: cell-based, human; settings: Tat 10-1000 nM, twenty hr after administration
Description: Astrocytes were grown in 96 well plates. At 70% confluency, cells were treated with varying concentrations of exogenous Tat, in media, which contained 1 μCi per well of tritiated thymidine (New England Nuclear). […] Filters were then dried and placed into scintillation fluid for counting in a Betaplate Apparatus.

B1: Tat: Highly purified recombinant Tat1-72, HIV-1 encoded transactivator protein (protein, UniProt P04608 1-72, looked up, fragment)
chain: MEPVDPRLEPWKHPGSQPKTACTNCYCKKCCFHCQVCFITKALGISYGRKKRRQRRRAHQNSQTHQASLSKQ
In the case of B1, the “astrocytic release of RANTES, MIP-1α and MIP-1β” value [1] is reported as “not observed”, the “release of MCP-1 after pre-treatment of Tat with trypsin” value ([2]; 100 nM equivalent of Tat digested with trypsin (Tat-tr)) is reported as “could be inhibited” and the “release of MCP-1 after immunoabsorption of Tat with a specific antibody” value ([2]; 100 nM equivalent of immunoabsorbed Tat (Tat-im)) is reported as “could be inhibited”. For the same molecule, the “astrocytic release of MCP-1” value ([2]; Tat 0.01 to 1.0 μM, 20 hr, 10^6 cells in 1 ml medium) was “significant increase in MCP-1 release; also recorded: dose-dependent increase in astrocytic release of MCP-1”, the “concentrations of Tat sufficient to increase astrocytic MCP-1 release” value ([2]; human astrocytes) was “low nanomolar” and the “astrocytic MCP-1 expression (MCP-1 encoding RNA)” value ([3]; 100 nM Tat, 2 or 4 hr stimulation, human astrocytes) was “increase in astrocytic MCP-1 expression; also recorded: increase in MCP-1 encoding RNA as early as 2 hr”. For the same molecule, the astrocyte proliferation (astrocytes) was “no measurable increase in astrocyte proliferation”.

B2: Tat1-86: Tat1-86 (Intracel), HIV-1 Tat protein (protein, UniProt P04608 1-86, looked up)
chain: MEPVDPRLEPWKHPGSQPKTACTNCYCKKCCFHCQVCFITKALGISYGRKKRRQRRRAHQNSQTHQASLSKQPTSQPRGDPTGPKE
modifications: full-length
notes: Tat1-86 (Intracel), HIV-1 Tat protein
For B2, the “ability to increase astrocytic expression of MCP-1, compared with Tat1-72” value ([3]; Tat1-86 (Intracel) versus recombinant Tat1-72) was “similar”.
